In general, EC50 refers to the midpoint of the concentration-response curve. The low end stands for higher potency in that assay, the high end for lower potency in that assay. The Kd is the free concentration of one partner at which half of the binding sites on the other are occupied at equilibrium, for simple one-to-one binding. Low values mean tighter binding, high ones weaker binding. As a reminder, the koff is the first-order rate constant of dissociation. A low value points to a long-lived complex. What is called kon is a measure of how fast the partners come together. A lower kon goes with slow association.

Seven molecules from patent publication CN118525034A (INTERVET INT BV, dated 2024) can be followed below.

In assay [1] the target is 犬IL-31RA ECD-10His (犬 (canine)). As to the kind of experiment: ELISA, IL-31RA ECD coated at 1 µg/mL, biotinylated canine IL-31 titrated, HRP-streptavidin. For orientation: In an ELISA, binding on a coated surface is turned into a signal by an enzyme label.
Assay [2] addresses T1, 犬IL-31RA ECD-10His (犬 (canine)).
T1 chain: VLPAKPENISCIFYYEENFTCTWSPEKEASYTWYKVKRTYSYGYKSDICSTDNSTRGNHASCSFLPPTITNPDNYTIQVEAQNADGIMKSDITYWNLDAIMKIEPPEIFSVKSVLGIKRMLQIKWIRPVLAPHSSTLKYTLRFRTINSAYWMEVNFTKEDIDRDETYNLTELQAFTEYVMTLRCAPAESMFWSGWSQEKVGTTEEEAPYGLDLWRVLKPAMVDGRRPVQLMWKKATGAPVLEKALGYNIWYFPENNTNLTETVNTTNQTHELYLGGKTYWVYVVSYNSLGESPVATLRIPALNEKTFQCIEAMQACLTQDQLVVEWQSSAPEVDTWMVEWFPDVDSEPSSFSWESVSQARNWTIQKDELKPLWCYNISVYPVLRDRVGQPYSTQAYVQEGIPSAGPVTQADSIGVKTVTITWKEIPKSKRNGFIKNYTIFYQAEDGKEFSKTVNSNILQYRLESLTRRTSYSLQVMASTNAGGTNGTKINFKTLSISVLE
Description: Octet BLI; upper end of the range, tied to 85C10 by Table 2.

The target in assay [3] is T1, 犬IL-31RA ECD-10His. Description: Octet BLI, biotinylated canine IL-31RA on SA biosensor, mAb 100-3.13 nM, 1:1 model. Background: Biolayer interferometry detects binding as a change in optical thickness at a sensor tip.
The target in assay [4] is T1, 犬IL-31RA ECD-10His. As to the kind of experiment: Octet BLI, biotinylated canine IL-31RA on SA biosensor.
Assay [5] has as its target T1, 犬IL-31RA ECD-10His. As to the kind of experiment: Octet BLI; lower end of the range, tied to 224G3 by Table 2.

Regarding 犬IL-31 (ligand), the concentration for a half-maximal effect (EC50) in assay [1] came out at 0.55 ng/mL.

B1: 85C10 (antibody, V domains shown)
VH: EFQLQQSGPELVKPGASVKISCKASGYSFTDYSINWVKQSNGKSLEWIGVINPNYGTSSHNQKFKGKATMTVDQSSSTAYMQLNSLTSEDSAVYYCARALDDYYFYWYFDVWGIGTTVTVSS
VL: DVVMTQTPLSLPVSLGDQASISCRSSQSLIHTNGNTYLHWYLQKPGQSPKLLIYKVSNRFSGVPDRFSGSGSGTDFTLKISRLEAEDLGVYFCSQSTHVPLTFGAGTKLELR
Regarding B1, the affinity with 犬IL-31RA ECD-10His [2], expressed as Kd, was 0.85 nM. In the assay with 犬IL-31RA ECD-10His [3], this molecule displayed a Kd of 0.851 nM, a koff of 0.000363 s⁻¹ and a kon of 427000 M⁻¹ s⁻¹.

B2: 218D9 (antibody, V domains shown)
VH: QVTLKESGPGILQPSQTLSLTCSFSGFSLSTFGRGVGWIRQPSGKGLDWLTHIWWDDDKYYNPALKSRLTISKDTSKNQVFLKIANVDTADTATYYCARIAGGLRRAPYAMDSWGQGTSVTVSS
VL: DVVMTQTPLSLPVSLGDQASISCRSSQSLVHTNGNTYLHWYLQKPGQSPKLLIYKVSNRFSGVPDRFSGSGSGTDFTLKISRVEAEDLGVYFCSQTTHVPLTFGAGTKLELK
Molecule B2 registered a Kd in the assay with 犬IL-31RA ECD-10His [4] of approximately 0.07 nM. In the assay with 犬IL-31RA ECD-10His [3], binding was put at a Kd of 0.0698 nM, the koff is 4.63e-05 s⁻¹ and the kon came out at 664000 M⁻¹ s⁻¹.

B3: 65G9 (antibody, V domains shown)
VH: EFQLQQSGPELVKPGASVKISCKASGYSFTDYGMNWLKQINGKSLEWIAIINPNYGTASSNPKFKDKATLTVDHSSSTAYMQLSSLTSEDSAVYYCARAFDGYYFYWYFDVWGTGTTVTVSS
VL: SIVMTQTPKFLLVSAGDRVTITCKASQSVTNDVTWYQQKPGQSPKLLIFSASNRYTGVPDRFTGSGYGTDFTFTISTVQAEDLAVYFCQQDYSSPWTFGGGTKLEIK
In the case of B3, in the assay with 犬IL-31RA ECD-10His [3], the Kd came out at 0.451 nM, the koff amounted to 0.000355 s⁻¹ and the kon came out at 787000 M⁻¹ s⁻¹.

B4: 51F8 (antibody, V domains shown)
VH: EVQLQQSVAELVRPGASVKLSCTASGFNIKNTFIHWVKQRPEQGLEWIGRIDPANGNTKYAPKFQGRATLTADTSSNTAYLQLSSLTSEDTAIYYCARYYYVSSYFDVWGTGTTVTVSS
VL: SIVMTQTPKFLLVSAGDRVTITCKASQSVTNDVTWYQQKPGQSPKLLIYYASNRYTGVPDRFTGSGYGTDFTFTISTVQAEDLAVYFCQQDYSSPFTFGSGTKLEIK
In the case of B4, in the assay with 犬IL-31RA ECD-10His [4], the Kd was approximately 0.2 nM. In the assay with 犬IL-31RA ECD-10His [3], this molecule displayed a dissociation constant (Kd) of 0.207 nM, a koff of 0.000141 s⁻¹ and a kon of 684000 M⁻¹ s⁻¹.

B5: 224G3 (antibody, V domains shown)
VH: EVQLVESGGDLVKPGGSLKLSCAASGFTFSSYGMSWVRQTPDKRLEWVATISNGGSYTYYPDSVKGRFTISRDNAKNTLYMQMSSLKSEDTAMYYCARNEPPDYWGQGTSVTVSS
VL: DIQMTQSPASLSVSVGETVTITCRASENIYSSLAWYQQKQGKSPQLLVYAATNLADGVPSRFSGSGSGTQYSLKINSLQSEDSGNYYCQHFRDTPPTFGGGTKLEIK
Turning to B5, binding with 犬IL-31RA ECD-10His [5] was characterised by a dissociation constant (Kd) of 0.001 nM. Besides, in the assay with 犬IL-31RA ECD-10His [3], the Kd is 0.000964 nM, the off-rate (koff) was 1.08e-06 s⁻¹ and the kon is 1.12e+06 M⁻¹ s⁻¹.

B6: 209G5 (antibody, V domains shown)
VH: EVQLQQSVAELVRPGASVKLSCTASGFNIKNTYMHWVKERPEQGLEWIGRIDPANGNSKYAPKFQGKATITTDTSSNTAYLQLSSLTSEDTAIYYCARYYYVSSHFDVWGTGTTVTVSS
VL: DIKMTQSPSSMYASLGERVTITCKASQDINSYLNWFQQKPGKSPKTLIYRADRLVDGVPSRFSGSGSGQDYSLTISSLEYEDMGIYYCLQYDEFPLTFGDGTKLELN
For B6, in the assay with 犬IL-31RA ECD-10His [3], the Kd was determined as 0.131 nM, the dissociation rate constant (koff) is 4.87e-05 s⁻¹ and the on-rate (kon) is 370000 M⁻¹ s⁻¹.
